The results in this text go back to EP4682166A1 (Guangzhou Enmai Biotechnology Co., Ltd, dated 2026).

Assay [1] concerns the target T1, human NMI (N-myc Interacting protein), recombinant protein (human, UniProt Q13287 1-307, limits assumed).
T1 construct: Gene ID: 9111; also called hNMI; antigen
T1 sequence (looked up): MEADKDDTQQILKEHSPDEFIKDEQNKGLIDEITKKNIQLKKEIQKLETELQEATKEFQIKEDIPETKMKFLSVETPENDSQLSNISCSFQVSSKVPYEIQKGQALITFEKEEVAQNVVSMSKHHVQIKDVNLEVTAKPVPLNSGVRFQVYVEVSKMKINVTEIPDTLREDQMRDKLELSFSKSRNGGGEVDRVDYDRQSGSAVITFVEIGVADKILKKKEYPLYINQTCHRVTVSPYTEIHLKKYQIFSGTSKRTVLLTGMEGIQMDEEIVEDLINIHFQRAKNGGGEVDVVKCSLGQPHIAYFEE
The assay can be described thus: sandwich ELISA; detection 94C4-1-biotin 0.5µg/mL; hNMI 390.625 pg/mL.

Assay [2] deals with T1, human NMI (N-myc Interacting protein), …. The assay can be described thus: sandwich ELISA; detection 98G10-1-biotin; hNMI 3.704 ng/mL. (In an ELISA, binding on a coated surface is turned into a signal by an enzyme label.)
Assay [3] has the same target. The assay can be described thus: sandwich ELISA; detection 39B4-1-biotin; hNMI 3.704 ng/mL.
For assay [4] the target is unchanged. In words: sandwich ELISA; detection 94C4-1-biotin 0.5µg/mL; hNMI 50,000.000 pg/mL.
Assay [5] has the same target. In words: sandwich ELISA; detection 94C4-1-biotin 0.5µg/mL; hNMI 25,000.000 pg/mL.
The target is the same in assay [6]. In words: sandwich ELISA; detection 94C4-1-biotin 1µg/mL; hNMI 781.250 pg/mL.
The target is the same in assay [7]. In words: sandwich ELISA; detection 94C4-1-biotin 1µg/mL; hNMI 1,562.500 pg/mL.
Assay [8] shares this target. The assay can be described thus: sandwich ELISA; detection 39B4-1-biotin; hNMI 33.333 ng/mL.
For assay [9] the target is unchanged. The assay can be described thus: sandwich ELISA; detection 94C4-1-biotin 1µg/mL; hNMI 6,250.000 pg/mL.
Assay [10] has the same target. The assay can be described thus: sandwich ELISA; detection 94C4-1-biotin 0.5µg/mL; hNMI 1,562.500 pg/mL.
Assay [11] shares this target. The assay can be described thus: sandwich ELISA; detection 94C4-1-biotin 1µg/mL; hNMI 390.625 pg/mL.
Assay [12] has the same target. The assay can be described thus: sandwich ELISA; detection 98G10-1-biotin; hNMI 33.333 ng/mL.
Assay [13] shares this target. In words: indirect ELISA, coated hNMI.
For assay [14] the target is unchanged. In words: sandwich ELISA; detection 94C4-1-biotin 0.5µg/mL; hNMI 3,125.000 pg/mL.
For assay [15] the target is unchanged. The assay can be described thus: sandwich ELISA; detection 94C4-1-biotin 0.5µg/mL; hNMI 6,250.000 pg/mL.
The target is the same in assay [16]. In words: sandwich ELISA; detection 94C4-1-biotin 1µg/mL; hNMI 3,125.000 pg/mL.
For assay [17] the target is unchanged. The assay can be described thus: sandwich ELISA; detection 98G10-1-biotin; hNMI 1.235 ng/mL.
The target is the same in assay [18]. The assay can be described thus: sandwich ELISA; detection 94C4-1-biotin 1µg/mL; hNMI 97.656 pg/mL.
For assay [19] the target is unchanged. The assay can be described thus: sandwich ELISA; detection 39B4-1-biotin; hNMI 1.235 ng/mL.
For assay [20] the target is unchanged. The assay can be described thus: sandwich ELISA; detection 94C4-1-biotin 1µg/mL; hNMI 25,000.000 pg/mL.
Assay [21] has the same target. The assay can be described thus: sandwich ELISA; detection 94C4-1-biotin 0.5µg/mL; hNMI 12,500.000 pg/mL.
Assay [22] has the same target. In words: sandwich ELISA; detection 94C4-1-biotin 1µg/mL; hNMI 50,000.000 pg/mL.
Assay [23] has the same target. In words: sandwich ELISA; detection 94C4-1-biotin 1µg/mL; hNMI 48.828 pg/mL.

B1: monoclonal antibody B-8 (antibody, V domains shown)
VH: QSLEESGGDLVKPGASLTLTCTASGFSFSSSYYMCWVRQAPGKGLEWIACIYAGSSGSTYYASWAKGRFTISKTSSTTVTLQMTSLTAADTATYFCAREYSYDDYGDFWGFNLWGPGTLVTVSS
VL: ALVMTQTPSSVSAAVGGTVTINCQASQNIYTNLAWYQQKPGQPPKLLIYGASNLESGVPSRFKGSGSGTEYTLTISDLECDDAATYYCQSSLYSRIADRANAFGGGTEVVVK
notes: Rabbit monoclonal antibody; also called B8-1
One may read the EC50 as the concentration at which the effect is half-maximal. As for B1, the OD450 is 0.178 OD450 in [1]; 0.607 OD450 in assay [2]; 0.563 OD450 in assay [3]; 3.17 OD450 in [4]; 2.71 OD450 in assay [5]; 0.288 OD450 in [6]. Moreover, the OD450 in assay [7] came out at 0.446 OD450; in assay [8], 2.43 OD450; in assay [9], 1.3 OD450; in assay [10], 0.42 OD450; in assay [11] it was 0.206 OD450; in [12] it was 2.48 OD450. Further, the OD450 in [14] came out at 0.712 OD450; in assay [15], 1.29 OD450; in [16] it was 0.75 OD450; in assay [17], 0.307 OD450; in assay [18] it was 0.15 OD450; in assay [19], 0.291 OD450. For the same molecule, the OD450 in assay [20] worked out at 2.79 OD450; in assay [21], 2.03 OD450; in [22] it was 3.11 OD450; in assay [23], 0.139 OD450. In [13], the EC50 stood at 0.0444 µg/mL.

B2: monoclonal antibody 240B10-1 (antibody, V domains shown)
VH: QSLEESGGRLVTPGGSLTLTCTVSGIDLSSYTMGWVRQAPGKGLEYIGIISGGGRTYYASWAKGRFTISKTSSTTVDLKVTSLTTEDTATYFCARIYTLWGQGTLVTVSS
VL: QVLTQTLASVSAAVGGTVTINCQSSQSVYNNDYLAWFQQKSGQPPKQLIHSASKLASGVPSRFKGSGSGTQFTLTINDVQCDDAATYYCLGGYDCYSADCNVFGGGTEVVVK
notes: Rabbit monoclonal antibody
B2: the OD450 in assay [1] was determined as 0.268 OD450; in assay [2], 0.777 OD450; in assay [3] it was 0.785 OD450; in assay [4] it was 3.33 OD450; in [5] it was 2.94 OD450; in assay [6], 0.351 OD450. Besides, the OD450 in assay [7] was found to be 0.568 OD450; in [8] it was 2.67 OD450; in assay [9] it was 1.47 OD450; in [10] it was 0.907 OD450; in assay [11], 0.255 OD450; in assay [12], 2.56 OD450. Moreover, the OD450 in assay [14] came out at 1.29 OD450; in [15], 1.58 OD450; in [16], 0.958 OD450; in [17], 0.362 OD450; in assay [18], 0.185 OD450; in [19] it was 0.35 OD450. Further, the OD450 in assay [20] turned out to be 2.75 OD450; in assay [21], 2.32 OD450; in assay [22] it was 3.1 OD450; in assay [23] it was 0.167 OD450. The EC50 in [13] amounted to 0.0477 µg/mL.
